Experimental data: article PMC314469, “Protein Interaction Networks by Proteome Peptide Scanning” (PLoS Biology, 2004)

Legend:
[1] = target: T1, amphyphisin SH3 (AMPH_HUMAN), P49418; experiment: SPOT array
T1 chain: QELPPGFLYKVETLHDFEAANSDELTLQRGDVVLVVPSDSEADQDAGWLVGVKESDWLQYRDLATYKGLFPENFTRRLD

[2] = target: endophilin SH3 (SH3G2_HUMAN), Q99962; experiment: SPOT array

Binder | normalised SPOT signal, Boehringer light units (BLU); mean over the file's lines of this peptide [1] | normalised SPOT signal, Boehringer light units (BLU); mean over the file's lines of this peptide [2]
QSLKIRRPHDYQPL [P26368 222-235] | 37.5 | 93.1
QSTNPKRPLSSANQ [P35670 228-241] | 35.1 | 94.2
QPQSLRRPLWLSHS [Q9H8J7 161-174] | 66.8 | 1380
ATDAPSRPGRLAGR [Q9H6H6 405-418] | 5530 | 147
QSSPPQRPPAPASP [BAC05814 18-32] | 49.9 | 4000
QPGSPRKPPADAKA [Q16772 198-212] | 36.6 | 46.1
ATDLPKKPPPPEVT [Q96QH2 123-137] | 68.1 | 46.8
QQPPPRRPPQAPEG [Q9UPY6 301-315] | 744 | 430
QLWDIRRPDRSERM [Q96S15 319-332] | 2300 | 692
QKTRPIKPPPDSQE [Q9H5W5 105-119] | 42.1 | 36.3
QQPGPAKPPTQQVG [Q9Y6V0 366-380] | 62.4 | 30.3
QQPLPRRPGHDDGQ [Q16360 104-117] | 36.8 | 106
QNRPLIRPKKRLIV [P15976 237-250] | 43.3 | 1510
QQQLLQRPPRDAQQ [O15350 392-405] | 3270 | 106
QLQAPDRPSRELLQ [Q9H6Q4 405-418] | 3320 | 377
ATSHFYRPPRSSHS [Q9ULC8 29-42] | 8300 | 218
QPLEPKRPPPPRPV [O43426 1101-1114] | 28.6 | 124
ATSRFYRPPRSSHS [Q9C0B5 150-163] | 5620 | 400
QRQRPPRPPPRGTP [Q8WTU5 20-34] | 8800 | 11000
QSISLRRPRLASQS [Q9UBH6 665-678] | 56.1 | 208
QLVILRRPERPMED [Q96NX7 585-598] | 31.8 | 16.7

Binder | normalised SPOT signal, Boehringer light units (BLU); mean over the file's lines of this peptide [1] | normalised SPOT signal, Boehringer light units (BLU); mean over the file's lines of this peptide [2]
QVFLPPRPPKVLGL [Q9Y3F0 251-265] | 1150 | 2710
QQKPPKRPPIEASV [Q9BZS0 76-90] | 57.3 | 822
QPLGPAKPPAQQTG [Q9Y6V0 327-341] | 52.7 | 63.4
QVDPPERPPSPPSD [Q9H4B3 193-207] | 92.2 | 326
QPVNPPRPFKHSER [Q9Y381 268-281] | 275 | 1250
QVDPPERPPPPPSD [Q9H292 194-208] | 43.2 | 275
QPQGPPRPPQGGRP [P04280 312-326] | 58.6 | 210
QQFRLRRPSGITWP [Q96RY6 139-152] | 61.5 | 116
QVEKLRRPEGASNE [O75381 360-373] | 40.3 | 64.7
QPGSPRKPPMDEKS [P08263 197-211] | 59.8 | 68.3
QQNLPKRPTSLPLN [Q13873 748-761] | 47.8 | 520
QRSHFKRPRELEDA [P33897 430-443] | 64.1 | 29.5
QPQGPPRPPQGDKP [Q15215 74-88] | 84.1 | 94.4
QLRPPPKPPLPAPD [Q9BZE0 329-343] | 825 | 4110
QRKNLRRPPSIKGW [Q9NYL5 22-35] | 25.3 | 57.6
QLFTPNRPKKREIY [Q9BWY5 227-240] | 165 | 698
QNQSIRRPSRQLAP [O75116 1371-1384] | 1460 | 665
QPLGPRRPMRPVGH [Q07092 192-205] | 10200 | 2870
QPALLKRPQLELYV [Q9Y477 106-119] | 28.2 | 52.6
QLSSPIRPPKYYTY [O43163 368-382] | 227 | 2940
QPDGPARPPGMAPS [Q96KZ1 72-86] | 63.5 | 39.7
